Values of other authors as cited in patent US20260069559A1, “COMBINATIONS OF RXFP1 MODULATORS AND SGLT2 INHIBITORS” (ASTRAZENECA AB, priority 2022, published 2026).

Conditions: after receiving serelaxin intravenously; fraction of patients

For serelaxin, the “patients who experienced a significant blood pressure drop (>40 mm Hg)” value is given as “approximately one third”.
